In patent publication US20210025901A1 (CALIFORNIA INSTITUTE OF TECHNOLOGY, published 2021):
Bridge positions count the residues as written; N and C are the ends. Primed or numbered codes have the meaning given here. Ends that are not written are not given here. PEG3′ = not defined here

Assays:
[1] = target: Full-length His-tagged IL-17F protein (ab167911, Abcam) (human) (UniProt Q96PD4); test: fluorescence titration of IL17F protein (nM) against the biotinylated biligand; protocol not described for this figure
[2] = target: T1, Full-length His-tagged IL-17F protein (ab167911, Abcam) (human, UniProt Q96PD4 31-163); test: point ELISA, His-IL-17F vs His-IL-17A at 100 nM
T1 construct: Bought protein, called 'full-length'; also called human IL-17F protein; not shown: His tag
T1 chain: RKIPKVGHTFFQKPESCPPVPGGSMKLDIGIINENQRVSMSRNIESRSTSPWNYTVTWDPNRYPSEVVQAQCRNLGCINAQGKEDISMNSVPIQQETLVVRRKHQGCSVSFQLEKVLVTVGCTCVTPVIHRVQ

[3] = target: T1, Full-length His-tagged IL-17F protein …; test: point ELISA, His-IL-17F vs His-IL-17A at 200 and 50 nM
[4] = target: T2, His-tagged IL-17F epitope scrambled N-terminal to click handle (C48S) (also: His6 tag, position and spacer not given here); test: point ELISA: ligand on NeutrAvidin plate, His-tagged epitope peptide at 2 uM, anti-His-AP detection, no-epitope background subtracted
T2 construct: Chemically synthesized, His6 handle; residues N-terminal to C48S (FFQKPES) scrambled
T2 peptide: SQFEKFPSPPVPGGS

[5] = target: T3, Plasmodium falciparum Histidine Rich Protein-2 (Pf.HRP-2) (Plasmodium falciparum); test: plot 'Affinity': fraction bound against [Pf.HRP2] (molar); protocol not described
T3 construct: The construct used in the assays is not described; the whole entry is named
T3 chain: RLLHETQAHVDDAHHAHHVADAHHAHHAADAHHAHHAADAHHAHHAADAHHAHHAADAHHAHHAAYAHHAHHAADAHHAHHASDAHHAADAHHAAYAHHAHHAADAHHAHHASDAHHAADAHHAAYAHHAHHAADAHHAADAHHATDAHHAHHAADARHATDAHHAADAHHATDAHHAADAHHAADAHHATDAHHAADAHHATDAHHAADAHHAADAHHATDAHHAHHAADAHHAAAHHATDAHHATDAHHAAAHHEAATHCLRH

[6] = target: T4, Full-length His-tagged IL-17A protein (ab166882, Abcam) (human, UniProt Q16552 24-155); test: point ELISA, IL17F or IL17A at 100 nM, mean subtracted fluorescence; protocol not described for this panel
T4 construct: Bought protein; it may not be the whole protein; also called human IL-17A protein; not shown: His tag
T4 sequence: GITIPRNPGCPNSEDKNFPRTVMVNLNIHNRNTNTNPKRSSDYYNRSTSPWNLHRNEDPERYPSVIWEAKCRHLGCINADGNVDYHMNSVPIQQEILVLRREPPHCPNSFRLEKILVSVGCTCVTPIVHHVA

[7] = target: T4, Full-length His-tagged IL-17A protein …; test: point ELISA: ligand on NeutrAvidin plate, His-tagged protein at 100 nM, anti-His-AP detection, subtracted fluorescence
[8] = target: T1, Full-length His-tagged IL-17F protein …; test: fluorescence titration of IL17F protein (nM) against the biotinylated biligand; protocol not described for this figure; the arrow from the number points to the PEG3 entry of the legend box
[9] = target: T1, Full-length His-tagged IL-17F protein …; test: method not stated, FIG. 12C; biligand with PEG3 linker
[10] = target: T3, Plasmodium falciparum Histidine Rich …; test: method not stated, FIG. 15; two Cy(YKYYR) joined by about a 1.5 nm linker

B1: Biotin-PEG3-Cy(RSYNK)(SEQ ID NO:28)-PEG2-Cy(RRATS)(SEQ ID NO:9) (designed binder)
peptide 1: RSYNK
peptide 2: RRATS
modifications: triazole (positions not given here); not fully specified (N-terminus, bridges); also: each chain triazole-cyclized macrocycle, positions not given here, macrocycles joined by PEG2 linker, attachment points not given here
- EC50 (read off the curve) [1]: 4 nM

B2: Biotin-PEG3-Cy(KKGWP)(SEQ ID NO:23) (peptide)
peptide: KKGWP
modifications: triazole N-C; not fully specified (N-terminus, C-terminus); also: flanking Pra and Az4 residues, sides not given here
notes: also called PEG3-biotin-modified Cy(KKGWP)
- selectivity for IL-17F over IL-17A [2]: 4 ratio

B3: Cy(RRATS)(SEQ ID NO:9)-PEG3-biotin (peptide)
peptide: RRATS-{PEG3′-biotin}
modifications: triazole N-C; also: flanking Pra and Az4 residues, sides not given here
notes: also called PEG3-biotin-modified Cy(RRATS)
- selectivity for IL-17F over IL-17A [3]: 2 ratio
- binding result [4]: no binding (tested: 2 uM)

B4: Cy(RRAQS)(SEQ ID NO:10)-PEG3-biotin (peptide)
peptide: RRAQS-{PEG3′-biotin}
modifications: triazole N-C; also: flanking Pra and Az4 residues, sides not given here
notes: also called PEG3-biotin-modified Cy(RRAQS)
- selectivity for IL-17F over IL-17A [3]: 2 ratio
- binding result [4]: no binding (tested: 2 uM)

B5: Biotin-PEG3-Cy(RSYNK)(SEQ ID NO:28) (peptide)
peptide: RSYNK
modifications: triazole N-C; not fully specified (N-terminus, C-terminus); also: flanking Pra and Az4 residues, sides not given here
notes: also called PEG3-biotin-modified Cy(RSYNK)
- selectivity for IL-17F over IL-17A [2]: 4 ratio

B6: cy(YKYYR)(SEQ ID NO:29)-linker-cy(GWNVDL)(SEQ ID NO:30) biligand (designed binder)
peptide 1: YKYYR
peptide 2: GWNVDL
modifications: not fully specified (bridges)
notes: also called resultant biligand
- EC50 [5]: 0.542 nM

B7: Cy(QKHGP)(SEQ ID NO:15)-PEG3-biotin (peptide)
peptide: QKHGP
modifications: triazole (positions not given here); not fully specified (N-terminus, C-terminus, bridges); also: triazole cyclization via flanking Pra and Az4 residues, order not given here, PEG3-biotin, end not given here
notes: also called PEG3-biotin-modified Cy(QKHGP)
- binding result [6]: no binding (tested: 100 nM)

B8: Cy(TKHGP)(SEQ ID NO:16)-PEG3-biotin (peptide)
peptide: TKHGP
modifications: triazole (positions not given here); not fully specified (N-terminus, C-terminus, bridges); also: triazole cyclization via flanking Pra and Az4 residues, order not given here, PEG3-biotin, end not given here
notes: also called PEG3-biotin-modified Cy(TKHGP)
- binding result [7]: no binding (tested: 100 nM)

B9: Biotin-PEG3-Cy(RSYNK)(SEQ ID NO:28)-PEG3-Cy(RRATS)(SEQ ID NO:9) (designed binder)
peptide 1: RSYNK
peptide 2: RRATS
modifications: not fully specified (N-terminus, bridges); also: macrocycles joined by PEG3 linker (one PEGylated amino acid), attachment not given here, triazole to a chain's N/C-terminus
notes: Two macrocycles covalently joined by one PEGylated amino acid; also called biligand Cy(RSYNK)-PEG3-Cy(RRATS)
- EC50 [8]: ~0.25 nM
- Kd [9]: 0.25 nM

B10: Biotin-PEG3-Cy(RSYNK)(SEQ ID NO:28)-PEG5-Cy(RRATS)(SEQ ID NO:9) (designed binder)
peptide 1: RSYNK
peptide 2: RRATS
modifications: triazole (positions not given here); not fully specified (N-terminus, bridges); also: each chain triazole-cyclized macrocycle, positions not given here, macrocycles joined by PEG5 linker, attachment points not given here
- EC50 (read off the curve) [1]: 4 nM

B11: YKYYR (SEQ ID NO:29) dimer (designed binder)
peptide: YKYYR
modifications: not fully specified (bridges)
notes: also called two Cy(YKYYR) PCCs linked together with about a 1.5 nm long linker; linked biligand
- EC50 [10]: 20 nM
